Laboratory results from patent US12358960B2, “Selective targeting of ubiquitin- and ubiquitin-like E1-activating enzymes by structurally-stabilized peptides” (Dana-Farber Cancer Institute, Inc., priority 2019, dated 2025).
Entries after “also recorded” stand apart in the source; their conditions may differ. Bridge positions count the residues as written; N and C are the ends. Square brackets hold non-standard residues; d marks the D form. Ends that are not written are not given here. * marks the point of attachment. Biotin = O=C1N[C@H]2[C@H](CS[C@H]2CCCCC(=O)*)N1; R8 = C=CCCCCCC[C@@](C)(N)C(=O)O; S5 = C=CCCC[C@](C)(N)C(=O)O; Nle = CCCC[C@H](N)C(=O)O; Dab = NCC[C@H](N)C(=O)O; Acryloyl = C=CC(=O)*

Tests used:
[1] = target: T1, Human E1 activating enzyme UBA1 (Homo sapiens, UniProt P22314); assay: In vitro enzyme inhibition assay: E1-mediated ubiquitin thioester transfer to E2 (band shift, silver stain); type: biochemical; details: for inhibition of E1-mediated ubiquitin transfer to E2 (conversion of E2 to E2~ubiquitin): 100 μM peptide, staple scan; for inhibition of E1-mediated ubiquitin transfer to E2 (conversion of E2 to E2~ubiquitin) / inhibition of E1-mediated thioester transfer to E2, dose response: UbcH5b E2 enzyme, 45 minutes; for inhibition of E1-mediated thioester transfer to E2, dose response: range of peptide concentrations; for inhibition of E1-mediated thioester transfer to E2 by mutant / additional stapled peptides: SAH-UBE2A-11 variants and controls, Examples 4, 7, 13; for inhibition of E1-mediated thioester transfer to E2 by warhead-bearing stapled peptides: Example 8
T1 sequence (P22314 1-1058): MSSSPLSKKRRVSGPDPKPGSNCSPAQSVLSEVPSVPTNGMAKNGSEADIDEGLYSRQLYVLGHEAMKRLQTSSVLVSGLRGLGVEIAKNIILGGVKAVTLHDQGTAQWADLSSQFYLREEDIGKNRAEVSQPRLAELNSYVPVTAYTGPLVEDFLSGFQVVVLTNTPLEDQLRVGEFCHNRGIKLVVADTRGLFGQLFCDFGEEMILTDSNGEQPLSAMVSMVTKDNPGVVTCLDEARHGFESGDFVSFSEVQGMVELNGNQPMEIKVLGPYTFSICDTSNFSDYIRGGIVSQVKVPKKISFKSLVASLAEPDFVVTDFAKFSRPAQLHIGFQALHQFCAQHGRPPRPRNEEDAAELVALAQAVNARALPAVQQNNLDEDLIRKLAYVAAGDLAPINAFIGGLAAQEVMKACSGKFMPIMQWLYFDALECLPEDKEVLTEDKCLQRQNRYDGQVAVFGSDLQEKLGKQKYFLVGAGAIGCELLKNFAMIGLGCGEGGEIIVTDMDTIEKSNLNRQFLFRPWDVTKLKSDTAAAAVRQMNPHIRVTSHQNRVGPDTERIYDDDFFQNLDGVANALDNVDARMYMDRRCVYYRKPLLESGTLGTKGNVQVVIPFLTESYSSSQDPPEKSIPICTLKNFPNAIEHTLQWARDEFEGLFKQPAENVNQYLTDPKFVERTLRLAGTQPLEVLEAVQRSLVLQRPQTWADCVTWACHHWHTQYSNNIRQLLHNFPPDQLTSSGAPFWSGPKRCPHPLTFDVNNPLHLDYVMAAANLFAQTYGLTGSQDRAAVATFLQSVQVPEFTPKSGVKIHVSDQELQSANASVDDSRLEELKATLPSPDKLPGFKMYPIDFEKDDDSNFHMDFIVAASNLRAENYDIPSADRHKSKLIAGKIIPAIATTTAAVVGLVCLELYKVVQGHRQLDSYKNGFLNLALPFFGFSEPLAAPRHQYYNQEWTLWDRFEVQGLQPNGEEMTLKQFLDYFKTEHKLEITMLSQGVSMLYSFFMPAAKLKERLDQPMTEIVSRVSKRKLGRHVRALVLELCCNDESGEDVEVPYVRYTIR
Description: In vitro Enzyme Inhibition Assays: To assess an E2 hA peptide's inhibition of an E1 enzyme, an in vitro enzyme inhibition assay can be used, for example. The in vitro enzyme inhibition assay measures an E2 hA peptide's ability to inhibit conjugation of ubiquitin to E2 by E1. Briefly, recombinant E1 (e.g., UBA1), recombinant E2 (e.g., UBE2A), ubiquitin, and Mg-ATP are combined in the presence of an E2 hA peptide or vehicle control (e.g., 1% DMSO) for a period of time (e.g., 30 minutes) at room temperature in a buffer containing, e.g., 50 mM NaCl, 50 mM HEPES pH 7.5. Control reaction includes no E1. Reactions are quenched by addition of SDS-containing loading dye and samples are resolved on a gel (e.g., a 4-12% Bis-Tris protein gel) under nonreducing conditions. Proteins on the gel are visualized via, e.g., silver stain. Conjugation of ubiquitin to E2 by E1 is monitored by conversion of free E2 (˜17 kDa) to E2˜ubiquitin conjugate (˜26 kDa).
Control reaction included no E1 enzyme. Reactions were quenched by addition of SDS-containing loading dye and samples were resolved on a 4-12% Bis-Tris protein gel under nonreducing conditions. Proteins were visualized via silver stain. Conjugation of ubiquitin to E2 by E1 was monitored by conversion of free E2 (17 kDa) to E2˜ubiquitin conjugate (26 kDa).
The ability of the peptides to inhibit E1-mediated thioester transfer to E2 was evaluated. Human E1 activating enzyme UBA1 (10 nM), UbcH5b E2 enzyme (150 nM), ubiquitin (1 μM), and Mg-ATP (20 μM) were combined in the presence of stapled peptide at a range of concentrations or vehicle control (1% DMSO) for 45 minutes at room temperature in buffer containing 50 mM NaCl, 50 mM HEPES, 1 mM TCEP pH 7.5. Reactions were quenched by addition of SDS-containing loading dye and samples were resolved on a 4-12% Bis-Tris protein gel under nonreducing conditions. Proteins were visualized via silver stain. Conjugation of ubiquitin to E2 by E1 was monitored by conversion of free E2 (17 kDa) to E2˜ubiquitin conjugate (26 kDa). Inhibition percentage was calculated from densitometry of silver stain images.
Streptavidin-biotin pull-down assays: For recombinant protein pull-downs, 10 pmol recombinant human UBA1 was incubated with 5 nmol C-terminally biotinylated SAH-UBE2A or DMSO vehicle control in a total volume of 1 mL binding buffer (50 mM NaCl, 20 mM HEPES, pH 7.4, 5 mM DTT) for 1.5 hours at 4° C. 30 μL of pre-equilibrated streptavidin agarose beads were then added and incubated for an additional 1.5 hours at 4° C. The beads were pelleted by centrifugation and washed three times with NP-40 buffer (20 mM HEPES, pH 7.4, 50 mM NaCl, 5 mM DTT, 0.5% [v/v] NP-40) before eluting the protein sample from the beads by heating at 70° C. for 10 min in 3×SDS loading buffer. Samples were subjected to electrophoresis and silver staining (Pierce 24612). For pull-down from cellular lysates, 0.75 mg HeLa cell lysate was incubated with 5 nmol C-terminally biotinylated SAH-UBE2A or DMSO vehicle control in a total volume of 1 mL binding buffer (50 mM NaCl, 20 mM HEPES, pH 7.4, 5 mM DTT) containing protease-phosphatase inhibitor cocktail for 2 hours at 4° C. 30 μL of pre-equilibrated streptavidin agarose beads (ThermoFisher 20357) were then added and incubated for an additional 1.5 hours at 4° C. The beads were pelleted by centrifugation and washed three times with NP-40 buffer (20 mM HEPES, pH 7.4, 50 mM NaCl, 5 mM DTT, 0.5% [v/v] NP-40) before eluting the protein sample from the beads by heating at 70° C. for 10 min in 3×SDS loading buffer. Proteins were separated by SDS-PAGE gel electrophoresis and detected by western blot against UBE1 (Abcam ab34711). In vitro Enzyme Inhibition Assays: Recombinant human E1 activating enzyme UBA1 (10 nM), E2 enzyme (150 nM), ubiquitin (1 μM), and Mg-ATP (20 μM) are combined in the presence of peptide or vehicle control (1% DMSO) for 45 minutes at room temperature in buffer containing 50 mM NaCl, 50 mM HEPES pH 7.5. Control reaction includes no E1 enzyme. […]

[2] = Circular dichroism, α-helicity; type: physicochemical; details: in solution
Description: Assays to Determine α-Helicity: Compounds are dissolved in an aqueous solution (e.g., 5 mM potassium phosphate solution at pH 7, or distilled H2O, to concentrations of 25-50 μM). Circular dichroism (CD) spectra are obtained on a spectropolarimeter (e.g., Jasco J-710, Aviv) using standard measurement parameters (e.g., temperature, 20° C.; wavelength, 190-260 nm; step resolution, 0.5 nm; speed, 20 nm/sec; accumulations, 10; response, 1 sec; bandwidth, 1 nm; path length, 0.1 cm). The α-helical content of each peptide is calculated by dividing the mean residue ellipticity by the reported value for a model helical decapeptide (Yang et al., Methods Enzymol. 130:208 (1986)).
Circular Dichroism: Acetylated peptides were dissolved in 10% (vol/vol) acetonitrile in water for circular dichroism analyses, performed on an Aviv Biomedical spectrophotometer, as reported (see Bird et. al., Methods in Enzymol., 446:369-386 (2008)).

[3] = target: T2, His-UBA1 (Homo sapiens, UniProt P22314); assay: Fluorescence microscopy of Ni-NTA agarose beads with His-UBA1; type: binding; details: FITC-labeled peptide 10 μM
T2 sequence (P22314 1-1058): T1 sequence (P22314 1-1058)
Description: Fluorescence Microscopy: His-tagged UBA1 (25 μg) was incubated with Ni-NTA agarose beads (100 μl) (Invitrogen™ R90110) in PBS for 30 min. Beads were then incubated for 30 min with FITC-labeled peptide (10 μM). Beads were plated in […] (10 μl/well) (Corning 384-well High Content Imaging Glass Bottom Microplate) and imaged with an Olympus wide-field epifluorescence microscope, a 63×LCPlanFL NA 0.7 objective, and a CoolSNAP DYNO camera.

[4] = target: His-p53 (Homo sapiens, UniProt P04637); assay: Fluorescence microscopy of Ni-NTA agarose beads, untagged or with His-p53 control; type: binding; details: FITC-labeled peptide 10 μM
[5] = listed as FITC-labeled SAH-UBE2A-11

His-p53, sequence (P04637 whole entry): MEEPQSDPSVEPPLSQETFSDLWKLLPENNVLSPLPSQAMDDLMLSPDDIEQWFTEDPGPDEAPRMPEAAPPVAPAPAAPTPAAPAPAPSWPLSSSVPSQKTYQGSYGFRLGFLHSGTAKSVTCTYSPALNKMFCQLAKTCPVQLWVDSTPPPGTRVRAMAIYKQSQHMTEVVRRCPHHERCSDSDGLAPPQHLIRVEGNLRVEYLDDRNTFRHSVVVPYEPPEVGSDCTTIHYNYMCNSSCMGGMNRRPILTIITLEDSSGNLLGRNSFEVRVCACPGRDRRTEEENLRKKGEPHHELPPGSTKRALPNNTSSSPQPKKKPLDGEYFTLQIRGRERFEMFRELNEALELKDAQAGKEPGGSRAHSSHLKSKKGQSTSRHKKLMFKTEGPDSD

BPSSAX1RQLLRKX2LKEIQ [SEQ ID NO:50]
inhibition of E1-mediated ubiquitin transfer to E2 (conversion of E2 to E2~ubiquitin) [1]: best in this panel at inhibiting E1-mediated ubiquitin transfer to E2
inhibition of E1-mediated thioester transfer to E2, dose response ([1]; listed as SAH-Ubc15-11): inhibited E1-mediated thioester transfer to E2 in a dose-dependent manner; also recorded: dose-dependently inhibit E1-mediated thioester transfer to E2
helicity / helical content [2]: 51%

BSTPARRRLBRDFKRLQ ([Nle]STPARRRL[Nle]RDFKRLQ-NH2; not fully specified (N-terminus)) [UBE2A, unmodified (unstapled) UBE2A peptide, B is norleucine]
inhibition of E1-mediated thioester transfer to E2 by mutant / additional stapled peptides [1]: no inhibitory activity; also recorded: negligible inhibitory activity
helicity / helical content [2]: 21%

BPSSASRQLLRKQLKEIQZ ([Nle]PSSASRQLLRKQLKEIQK(Biotin)) [Ubc15-1, unmodified Ubc15 peptide, Z is biotinylated lysine]
helicity / helical content [2]: 19%

BSTPX1RARAARX2FKRLQ (Ac-[Nle]STP[R8]RARAAR[S5]FKRLQ-NH2; staple 5-12) [SAH-UBE2A-AAA]
inhibition of E1-mediated thioester transfer to E2 by mutant / additional stapled peptides [1]: no inhibitory activity; also recorded: progressively impaired inhibitory activity as compared to the single point mutation peptide SAH-UBE2A-R7E; also recorded: negligible inhibitory activity

BPSSASRQLX2RKQX2KEIQ [SEQ ID NO:45]
inhibition of E1-mediated ubiquitin transfer to E2 (conversion of E2 to E2~ubiquitin) [1]: unable to inhibit E1-mediated ubiquitin transfer to E2

BPSSAX1RQLLRKX2LJEIQ ([Nle]PSSA[R8]RQLLRK[S5]L[Dab](Acryloyl)EIQ; staple 6-13; not fully specified (N-terminus, C-terminus); printed as BPSSAX1RQLLRKX2LJEIQ) [SEQ ID NO:844, warhead-bearing stapled peptide, J acrylamide-bearing Dab at A11, staple A2 and A9]
inhibition of E1-mediated thioester transfer to E2 by warhead-bearing stapled peptides [1]: inhibited E1-mediated thioester transfer to E2

BPSSASRQLLRKX2LKEX2Q [SEQ ID NO:47]
inhibition of E1-mediated ubiquitin transfer to E2 (conversion of E2 to E2~ubiquitin) [1]: inhibited conversion of E2 to E2˜ubiquitin by E1

FITC-SAH-UBE2A: FITC conjugated to SEQ ID NO: 132 ([Nle]STP[R8]RRRL[Nle]R[S5]FKRLQ; staple 5-12; not fully specified (C-terminus); also: FITC conjugate, site not settled)
binding of FITC-labeled peptide to Ni-NTA beads with His-UBA1 [3]: only bound to the beads in the presence of His-UBE1
binding of FITC-labeled peptide to Ni-NTA beads with His-UBA1 [3, 5]: binds specifically to Ni-NTA beads tagged with His-UBA1
binding of FITC-labeled peptide to untagged beads or His-p53 beads [4]: did not bind nonspecifically to the beads (top row) or to His-p53
binding of FITC-labeled peptide to untagged beads or His-p53 beads [4, 5]: did not engage untagged beads or beads tagged with an unrelated protein (His-p53)

BPSSASRX2LLRX2QLKEIQ [SEQ ID NO:43]
inhibition of E1-mediated ubiquitin transfer to E2 (conversion of E2 to E2~ubiquitin) [1]: unable to inhibit E1-mediated ubiquitin transfer to E2

BPSSAX2RQLX2RKQLKEIQ [SEQ ID NO:42]
inhibition of E1-mediated ubiquitin transfer to E2 (conversion of E2 to E2~ubiquitin) [1]: unable to inhibit E1-mediated ubiquitin transfer to E2

BSTPX1RRRLBRX2FJRLQ ([Nle]STP[R8]RRRL[Nle]R[S5]F[Dab](Acryloyl)RLQ; staple 5-12; not fully specified (N-terminus, C-terminus); printed as BSTPX1RRRLBRX2FJRLQ) [SEQ ID NO:752, warhead-bearing stapled peptide, J acrylamide-bearing Dab at A11, staple A2 and A9]
inhibition of E1-mediated thioester transfer to E2 by warhead-bearing stapled peptides [1]: inhibited E1-mediated thioester transfer to E2

BX1LKRIHKX2LNDLARD [SAH-UBE2D2-11]
inhibition of E1-mediated thioester transfer to E2, dose response [1]: inhibited E1-mediated thioester transfer to E2 in a dose-dependent manner; also recorded: dose-dependently inhibit E1-mediated thioester transfer to E2

BSTPX1RRRLARX2FKRLQ (Ac-[Nle]STP[R8]RRRLAR[S5]FKRLQ-NH2; staple 5-12) [SEQ ID NO:820]
inhibition of E1-mediated thioester transfer to E2 by mutant / additional stapled peptides [1]: impair the inhibitory activity of SAH-UBE2A-11
